Reference: patent US11419948B2, “Functionalized microgels with fibrin binding elements” (Georgia Tech Research Corporation, priority 2013, dated 2022)

Experiments:
BSA = BSA (Bos taurus, UniProt P02769); test: SPR on BSA surface; type: binding
Excerpt: FIG. 2A is an SPR sensorgram of thin fibrin layer immobilized on surface the SPR channel via NHS/EDC activated carboxylic acid terminated SAM with subsequent injections of fibrinogen (1), ethanolamine quencher (2), HEPES buffer+Tween 20 (3), thrombin (4), and fibrinogen+anti-thrombin+heparin (5). FIGS. 2B-2K are representative SPR sensorgrams of scFvs on fibrin layer (FIGS. 2B-2F) or BSA surface (FIGS. 2G-2K) for clones A2 (FIGS. 2B and 2G), A6 (FIGS. 2C and 2H), H6 (FIGS. 2D and 2I), B3 (FIGS. 2E and 2J), or non-specific control (FIGS. 2F and 2K). Experimental data is shown in black and fits are shown in dotted line.
Based on previous SPR protocols developed in the lab^4, a thin fibrin layer was immobilized on the surface of a gold SPR chip via layer-by-layer deposition of fibrinogen-thrombin-fibrinogen^3. SdFvs were flowed across the fibrin surface and the binding interactions were evaluated and recorded. Additionally, antibody fragment binding interactions with a surface of immobilized fibrinogen was used to investigate the specificity to fibrin. All SPR data was examined and analyzed with Scrubber 2 and Clamp XP (Center for Biomolecular Interactions Analysis, University of Utah). Data simulation curves were generated based on a Langmuir 1:1 binding model assuming only a single ligand-analyte interaction.

fibrin D-Dimers = target: T1, fibrin D-Dimers (Homo sapiens, UniProt P02671+P02675+P02679, DEL433-453); test: ELISA against adsorbed fibrin D-Dimers; type: binding; settings: D-Dimer dilutions
T1 construct: ELISAs against plates coated with adsorbed fibrin D-Dimers or E Regions
T1 sequence (P02671 130-216 limits assumed): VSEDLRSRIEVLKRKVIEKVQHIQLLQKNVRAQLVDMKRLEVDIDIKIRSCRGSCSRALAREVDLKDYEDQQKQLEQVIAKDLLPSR
T1 sequence (P02675 164-491 limits assumed): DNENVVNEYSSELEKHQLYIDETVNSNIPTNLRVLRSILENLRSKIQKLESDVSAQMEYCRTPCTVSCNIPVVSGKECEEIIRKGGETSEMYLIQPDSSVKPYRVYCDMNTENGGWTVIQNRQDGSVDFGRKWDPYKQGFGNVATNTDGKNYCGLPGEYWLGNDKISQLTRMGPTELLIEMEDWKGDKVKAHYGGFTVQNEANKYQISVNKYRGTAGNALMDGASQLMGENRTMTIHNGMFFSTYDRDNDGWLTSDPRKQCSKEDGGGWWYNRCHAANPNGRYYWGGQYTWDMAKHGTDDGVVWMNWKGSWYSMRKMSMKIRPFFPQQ
T1 sequence (P02679 114-432 limits assumed): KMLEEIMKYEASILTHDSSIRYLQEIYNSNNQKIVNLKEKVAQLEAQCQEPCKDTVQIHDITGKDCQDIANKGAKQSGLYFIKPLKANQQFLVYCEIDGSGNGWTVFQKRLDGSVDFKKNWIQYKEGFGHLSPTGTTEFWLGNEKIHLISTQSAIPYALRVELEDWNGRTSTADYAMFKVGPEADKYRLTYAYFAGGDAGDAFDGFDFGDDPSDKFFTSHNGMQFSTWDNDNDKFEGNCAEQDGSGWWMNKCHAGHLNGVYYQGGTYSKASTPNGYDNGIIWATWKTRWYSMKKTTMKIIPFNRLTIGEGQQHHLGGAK
Experimental: This was determined through ELISAs against plates coated with adsorbed fibrin D-Dimers or E Regions.
ELISA set-up and analysis was identical to that performed for the plasma-binding ELISA, the main exception being a substitution of human plasma dilutions for D-Dimer or E Region dilutions adsorbed to the 96-well plates. Both D-Dimer and […]

Sequence of BSA (P02769 25-607): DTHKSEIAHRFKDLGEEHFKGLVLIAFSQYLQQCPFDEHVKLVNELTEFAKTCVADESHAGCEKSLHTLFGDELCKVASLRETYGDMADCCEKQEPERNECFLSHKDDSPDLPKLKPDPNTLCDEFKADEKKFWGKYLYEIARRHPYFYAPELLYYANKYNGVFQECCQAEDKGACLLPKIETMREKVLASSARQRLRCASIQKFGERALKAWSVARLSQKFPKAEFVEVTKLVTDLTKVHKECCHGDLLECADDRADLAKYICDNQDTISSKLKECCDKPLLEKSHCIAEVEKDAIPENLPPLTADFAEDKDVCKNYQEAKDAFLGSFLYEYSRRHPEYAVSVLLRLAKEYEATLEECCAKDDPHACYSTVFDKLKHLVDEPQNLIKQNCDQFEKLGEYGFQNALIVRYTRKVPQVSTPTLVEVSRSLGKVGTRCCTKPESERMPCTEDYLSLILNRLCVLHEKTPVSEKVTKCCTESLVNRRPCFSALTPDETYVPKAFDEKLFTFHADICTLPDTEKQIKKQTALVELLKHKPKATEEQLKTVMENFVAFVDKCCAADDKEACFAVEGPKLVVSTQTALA

B1: H6: fibrin-specific human sdFv clone from phage biopanning, SEQ ID NO: 1 (protein)
VHH: QVQLLESGGGLVQPGGSLRLSCAASGDRFTHNDMGWVRQAPGKGLEWVSTIPTTDGSTYYADSVKGRFTISRDNSKSTLYLQMNSLRAEDTAVYYCATGYMWKAPAYVKYWGQGTLVTVSSAAAEQKLISEEDLNSAAHYTDIG
binding to BSA (BSA): negligible binding | binding to D-Dimer (fibrin D-Dimers): negligible binding
